What was measured:
[1] = molecular target: anti-Bla g 1 scFv (chicken); experiment: crystal structure
[2] = molecular target: rBla g 1-EC (combined with the scFv for crystallography) (Blattella germanica, UniProt Q9UAM5); experiment: SEC
[3] = molecular target: rBla g 1-EC T80A, with GST tag (Blattella germanica, UniProt Q9UAM5, point mutant); experiment: ELISA
[4] = molecular target: rBla g 1-EC E200A, with GST tag (Blattella germanica, UniProt Q9UAM5, point mutant); experiment: ELISA
[5] = molecular target: rBla g 1-EC D76A, with GST tag (Blattella germanica, UniProt Q9UAM5, point mutant); experiment: ELISA
[6] = molecular target: rBla g 1-EC N193A, with GST tag (Blattella germanica, Bla g 1.0101, UniProt Q9UAM5, point mutant); experiment: ELISA
[7] = molecular target: rBla g 1-EC E161A, with GST tag (Blattella germanica, Bla g 1.0101, UniProt Q9UAM5, point mutant); experiment: ELISA
[8] = molecular target: rBla g 1-EC E79A, with GST tag (Blattella germanica, UniProt Q9UAM5, point mutant); experiment: ELISA
[9] = molecular target: rBla g 1-EC D50A, with GST tag (Blattella germanica, UniProt Q9UAM5, point mutant); experiment: ELISA
[10] = molecular target: rBla g 1-EC L60A, with GST tag (Blattella germanica, UniProt Q9UAM5, point mutant); experiment: ELISA
[11] = molecular target: rBla g 1-EC N93A, with GST tag (Blattella germanica, UniProt Q9UAM5, point mutant); experiment: ELISA
[12] = molecular target: rBla g 1-EC N96A, with GST tag (Blattella germanica, UniProt Q9UAM5, point mutant); experiment: ELISA
[13] = molecular target: rBla g 1-EC Q41A, with GST tag (Blattella germanica, UniProt Q9UAM5, point mutant); experiment: ELISA
[14] = molecular target: rBla g 1-EC I53A, with GST tag (Blattella germanica, UniProt Q9UAM5, point mutant); experiment: ELISA
[15] = molecular target: rBla g 1-EC N104A, with GST tag (Blattella germanica, UniProt Q9UAM5, point mutant); experiment: ELISA
[16] = molecular target: rBla g 1-EC H113A, with GST tag (Blattella germanica, UniProt Q9UAM5, point mutant); experiment: ELISA
[17] = molecular target: rBla g 1-EC Q183A, with GST tag (Blattella germanica, Bla g 1.0101, UniProt Q9UAM5, point mutant); experiment: ELISA
[18] = molecular target: rBla g 1-EC D107A, with GST tag (Blattella germanica, UniProt Q9UAM5, point mutant); experiment: ELISA
[19] = molecular target: rBla g 1-EC V83A, with GST tag (Blattella germanica, UniProt Q9UAM5, point mutant); experiment: ELISA

- stoichiometry N [1]: 2
- stoichiometry N [2]: 1 Bla g 1 per scFv (printed as 2:2)
- ΔΔG against wild type (RT ln(IC50 WT/IC50 mutant)) [3]: -1.7 kCal/mol
- ΔΔG against wild type (RT ln(IC50 WT/IC50 mutant)) [4]: -0.02 kCal/mol
- ΔΔG against wild type (RT ln(IC50 WT/IC50 mutant)) [5]: -1.1 kCal/mol
- ΔΔG against wild type (RT ln(IC50 WT/IC50 mutant)) [6]: -2.1 kCal/mol
- ΔΔG against wild type (RT ln(IC50 WT/IC50 mutant)) [7]: 0.33 kCal/mol
- ΔΔG against wild type (RT ln(IC50 WT/IC50 mutant)) [8]: -1.2 kCal/mol
- ΔΔG against wild type (RT ln(IC50 WT/IC50 mutant)) [9]: 0.06 kCal/mol
- ΔΔG against wild type (RT ln(IC50 WT/IC50 mutant)) [10]: 0 kCal/mol
- ΔΔG against wild type (RT ln(IC50 WT/IC50 mutant)) [11]: 0.31 kCal/mol
- ΔΔG against wild type (RT ln(IC50 WT/IC50 mutant)) [12]: 0.33 kCal/mol
- ΔΔG against wild type (RT ln(IC50 WT/IC50 mutant)) [13]: -0.05 kCal/mol
- ΔΔG against wild type (RT ln(IC50 WT/IC50 mutant)) [14]: 0.09 kCal/mol
- ΔΔG against wild type (RT ln(IC50 WT/IC50 mutant)) [15]: 0.4 kCal/mol
- ΔΔG against wild type (RT ln(IC50 WT/IC50 mutant)) [16]: 0.09 kCal/mol
- ΔΔG against wild type (RT ln(IC50 WT/IC50 mutant)) [17]: 0.33 kCal/mol
- ΔΔG against wild type (RT ln(IC50 WT/IC50 mutant)) [18]: 0.13 kCal/mol
- ΔΔG against wild type (RT ln(IC50 WT/IC50 mutant)) [19]: -0.33 kCal/mol
B1: anti-Bla g 1 scFv (scFv, V domains shown)
VH: AVTLDESGGGLQTPGGALSLVCKASGFTFSVYDMMWVRQAPSKGLEWVAGIGITGSTYYASAVKGRATISRDNGQSTVRLQLNNLRAEDTGTYYCARGGAYSINKLDTWGQGTEVIVSS
VL: QAALTQPSSVSANPGETVKITCSGGGSSSNYGWFQQKSPGSAPVTVIYNNNNRPSDIPSRFSGSKSGSTATLTITGVQADDEAVYFCGGRDSTYAGMFGAGTTLTVL

Source: publication PMC4097036 (Molecular immunology, 2014)
